According to patent publication US7202212 (BETH ISRAEL DEACONESS MEDICAL CENTER, dated 2007):

Target: T1, mouse α7 subunit of the 20S proteasome, full length (mouse, UniProt O70435 1-255)
T1 construct: also called a7; full length a7 construct
T1 sequence (looked up): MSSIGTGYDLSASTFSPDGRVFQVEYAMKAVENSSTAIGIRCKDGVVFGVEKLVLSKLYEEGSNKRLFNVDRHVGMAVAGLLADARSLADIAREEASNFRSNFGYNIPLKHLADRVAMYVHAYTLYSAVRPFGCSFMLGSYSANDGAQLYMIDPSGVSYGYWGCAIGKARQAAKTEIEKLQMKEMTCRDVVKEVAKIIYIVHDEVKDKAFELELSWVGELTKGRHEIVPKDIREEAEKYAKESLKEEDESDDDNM
Test: yeast two-hybrid screen of a mouse cDNA library with PR-39 exon 4 as bait
Method: To identify possible intracellular targets of PR-39 peptide action, a yeast two-hybrid screen of mouse cDNA library was performed using the unique 4th exon DNA sequence of porcine PR-39 gene as "bait". […] All four clones encoded overlapping identical cDNA sequences which are highly homologous to the sequence of the human α7 (HC8) subunit of the 20S proteasome (GeneBank accession AF055983).

binding result: binds
B1: porcine PR-39 peptide (4th exon, amino acids 131 to 169) in pAS2-1 vector as yeast two-hybrid bait (peptide, not shown: large carriers)
chain: RRRPRPPYLPRPRPPPFFPPRLPPRIPPGFPPRFPPRFP
notes: Bait of the yeast two-hybrid assay; The 39 residues are amino acids 131 to 169 of the porcine precursor; also called PR-39 construct
